The nanobody polyreactivity screen of Harvey et al. (2022)

experiment: yeast display, Sf9 membrane polyspecificity reagent, FACS + sequencing; frameworks hold sequencing errors
Summary of the method: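 Galactose-induced (36–48 hours) yeast carrying a synthetic nanobody display library were exposed to 10% biotinylated, detergent-solubilized Sf9 membrane reagent at 4 °C for 1 hour. FACS followed streptavidin microbead enrichment, using low and high (top ~1%) gates for expression (anti-HA) and reagent binding (streptavidin). Colony PCR, MiSeq 2 × 250 sequencing and CDR-length filtering followed. Labels for polyreactivity reflect the gate of origin.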

| Sequence | polyreactivity (PSR sort gate) |
| --- | --- |
| QVQLVESGGGLVQAGGRLRLSCAASGSIFYRNAMGWYRQAPGKERELVAAIRYSGDNTYYADSVKGRFTISRDNAKNTVYLQMNSLKPEDTAVYYCAADFPDYEYWGQGTQVTVSS | high polyreactivity |
| QVQLVESGGGLVQAGGRLRLSCAASGSIFYSNAMGWYRQAPGKERELVARITWSGGSTYYADSVKGRFTISRDNAKNTVYLQMNSLKPEDTAVYYCNKVIFRYFTTRPTRTYEYWGQGTQVTVSS | low polyreactivity |
| QVQLVESGGGLVQAGGRLRLSCAASGSIFYYYAMGWYRQAPGTERELVAAISRGGNTYYADSVKGRFTNSRDNAKNTVYLQMNSLKPEDTAVYYCNARPPNKRYKYGYWGQGTQVTVSS | high polyreactivity |
| QVQLVESGGGLVQAGGRLRLSCAASGSILGEYAMGLNRQANGKERELVAAISVGGCSTYYADSVKGRFTISRDNAKNTVYLQMNSLKPVDTAVYYCSAYDYQSEMYYWGQGTQVTVSS | high polyreactivity |
| QVQLVESGGGLVQAGGRLRLSCAASGSSFVAYTMGWYRQAPGKERELVAAISRGGSTNYADSVKGRFTISRDNAKNTVYLQMNSLKPEDTAVYYCAAKVWDGQLLYYWGQGTQVTVSS | low polyreactivity |
| QVQLVESGGGLVQAGGRLRLSCAASGSTFAWSAMGWYRQAPGKERELVAGIWNTGRTYYADSVKGRFTISRDNAKNTVYLQMNSLKPEDTAVYYCAALYNSPNVTYYYWGQGTQVTVSS | high polyreactivity |
| QVQLVESGGGLVQAGGRLRLSCAASGSTFKIYAMGWYRQAPGKERELVARITGRGGSTYYADSVKGRFTISRDNAKNTVYLQLNSLKPEDSAVYYCAARVYTYYYDLHKRFYWGHGTQVTVSS | high polyreactivity |
| QVQLVESGGGLVQAGGRLRLSCAASGSTIGKYVMGLYRQAPGKERELVAAITNIAGSTYYADSVKGRFTISRDTAKNTVYVQLNSLNPEDTAVYYCAADIEEYYGFDDYDYSYNDYDYWGQGTQVTVSS | high polyreactivity |
| QVQLVESGGGLVQAGGRLRLSCAASGSTIGYYTMGWYRQAPGKERELVAAISWSGDSTYYADSVKGRFTISRDNAKNTVYLQMNSLKPEDTAVYYCAKVHYVRRGDSRYDYWGQGTQVTVSS | high polyreactivity |
| QVQLVESGGGLVQAGGRLRLSCAASGSTIRTYARGWYRQAPGKERELVAAITNSDGSTYYADSVKGRFTISRDNAKNTVYLQMYSLKPEDTAVYYCAAYYYPLGYDYWGQGTQVTVSS | low polyreactivity |
| QVQLVESGGGLVQAGGRLRLSCAASGSTLGRYAMGWYRQAPGKERELVASITWSDDSTYYADYVKGRFTISRDNAKNTVYLQMNSLKPEDTAVYYCAAAGNLYTYRFYYWGQGTQVTVSS | low polyreactivity |
| QVQLVESGGGLVQAGGRLRLSCAASGSTVRYYAMGGYRQAPVKERELVAAITSGGRTYYADSVKGRFTISRDNAKNTVYLQMNSLKPEDTAVYYCNARRYGSGMDYWGQGTQVTVSS | low polyreactivity |
| QVQLVESGGGLVQAGGRLRLSCAASGYIFDDKAMGWYRQAPGKERELVATNYADSVKGRFTISRDNAKNTVYLQMNSLKPEATAVYYCAAEAFYPWTSSRYIAYYYWGQGTQVTVSS | low polyreactivity |
| QVQLVESGGGLVQAGGRLRLSCAASGYIFPKNAMGWYRQAPGKERELVAAITGSGGSTYYADSVKGRFTISRDNAKNTVYLQMNSLKPEDTAVYYCAKRSWIEYDYWGQGTQVTVSS | low polyreactivity |
| QVQLVESGGGLVQAGGRLRLSCAASGYTFKFNAMGWYRQAPGKETELVAGITRGGGTYADSVKGRFTISRDNAKNTVYLQMNSLKPDDTAVSYCASAWGAPSRFFSAFDYWGQGTQVTVSS | low polyreactivity |
| QVQLVESGGGLVQAGGRLRLSCAASRRIFDYNDRGWYRQAPGKERELVAAINDDSRTNYADSVKGRFTISRDNAKNTVYLQMNSLKPEDTAVYYCNNVYGRSGIGFDYWGQGTQVTVSS | low polyreactivity |
| QVQLVESGGGLVQAGGRLRLSCADSGLIIYYYAMGWYRQAPGKEREFVAAITSSGGSTSYADSVKGRFTISRDNAKNTVYLQMNSLKPEDTAVYYCAARSKSEGGYWGQCTQVTVSS | high polyreactivity |
| QVQLVESGGGLVQAGGRLRLSCADSGRTYGSNAMGWYRQAPGKERELVAAISGGDTTNYADSVKGRFTISRDNAKNTVYLQMNSLKPEDTAVYYCATDLRPAYDYWGEGTQVTVSS | low polyreactivity |
| QVQLVESGGGLVQAGGRLRLSCASSGITFTFNAMGRYTQAPGKEMELVAAITWSGGSTFYADSVKGRFTISRDNAKNSVYLQMNSLIPEDTAVYYCARDTELYVRWLDYWGQGTQVTVSS | low polyreactivity |
| QVQLVESGGGLVQAGGRLRLSCPPSGVTFTRNAMGWYRQAPGKERELVAAISSSAGSTSYADSVKGRLTISRDNAKNTVYLQMNSLKPEDTAVYYCATEGSYYSWVGKVGYRYQYHYWGHGTQVTVSS | high polyreactivity |
| QVQLVESGGGLVQAGGRLRLSCSASGIILPKYTMGGYRQAPGKERELVAAITRSGGSTYYADSVKGRFTISRDNAKNTVYLHMISMKPEDTAVYYCAAERASFRYQDYYIYDYWGQGTEVTVSS | high polyreactivity |

| Sequence | polyreactivity (PSR sort gate) |
| --- | --- |
| QVQLVESGGGLVQAGGRLRLSCSASGSIFVTYDMGWYRQAPGKERELVAGISGSGSTNYADSVKGRFTISRDNAKNTVYLQMNSLKPEDTAVYYCAAEYEYLWSQYLTDYGYDYWGQGTQVTVSS | low polyreactivity |
| QVQLVESGGGLVQAGGRLRLSCSASGSTFYPNAMGWYRQAPGKERELGAAISWSGGSTYYADSVKGRFTISRDNAKKTVDLQMNSLKPEDTAVYYCAAYYYGVRKYDYWGQGTQVTVSS | high polyreactivity |
| QVQLVESGGGLVQAGGRLRLTCAASGSIFEGYAMGWYRQAPGKERELGARITSDDDSTYYADSVKGRFTISRDNAKNSVYLQMKSLKPEDTAVYYCNAVYYWTSLAMDSWGQGTQVTVSS | low polyreactivity |
| QVQLVESGGGLVQAGGRLRLTCAPSGTIIYQYAMGFDRHAPGKERELVAASSTTGGPTYYADSVKGRFTISRDNAKKTVYLQMNSLKPEDTAVYYCAAEKYYGYDYWGQGTQVTVSS | high polyreactivity |
| QVQLVESGGGLVQAGGRLRVSCATSGRTFGKYAMGWYRQAPGKERELVATISRSGGSTYYADSVKGRFTISRDNAKNTVYLQMNSLNPVDNAVYYCNAVTSRYIWPPGLDRYHYWGQGTQVTVSS | high polyreactivity |
| QVQLVESGGGLVQAGGRLSLICAASGSIFPINAMGWYRQAPGKERELVADITSGGSTNYADSVKGRFTISRDNAKNTVYLQMNSLKPEDTAVYYCAADWRYWRWAFDYWGQGTQVTVSS | high polyreactivity |
| QVQLVESGGGLVQAGGSHGLSCAASGRTSEKNPMGWYRQAPGIERELVAGISWRGGSTYYADSVKGRFTISRDNAKNTVYLQMNSLKPEDTAFYYCARSGAFSGLDDSWGQGTQVTVSS | low polyreactivity |
| QVQLVESGGGLVQAGGSHRFSCGASGSTSTYYAMGCYRQAPGTERELVAAISSGGSTNYADSVKGRFTISRDNAKNTVYLKMNSLKPEETAVYYCATDSGDGEGDYWGQGTQVTVSS | low polyreactivity |
| QVQLVESGGGLVQAGGSHRLSCAASARIFYLYAMGWYRQAPGKERELVAAISRSGSSTYYADSVKGRFTISRDNPKNTVYLEMNSLKPEDTAVYYFADLRYRPVHQDHYDYWGQGTQVTVSS | high polyreactivity |
| QVQLVESGGGLVQAGGSHRLSCAASGFILAYYAMGWYRQAPGKERELVASINRSGGSTYYADSVKGRFTISRDNAKNTVYFQMNSLKPEDTAVHYCAHTNRGDGQWWYRYYYWGQGTQVTVSS | high polyreactivity |
| QVQLVESGGGLVQAGGSHRLSCAASGGTFNTNAMGWYRQAPGKERELVATIRGGVITTYADSVKGRFTISRDNAKNTVYLQMNSLKPEDTAVYYFNKDNAPYAVSSIFGARDYWGQGTQVTVSS | low polyreactivity |
| QVQLVESGGGLVQAGGSHRLSCAASGIIFPWYVMGWYRQAPGKERELVAAITQSGGSTFYADSLKGRFTISRDNAKNTVYLQMNCLKPEDTAVYYCHTEDFFKFPEMDSWGQGTQLTVSS | low polyreactivity |
| QVQLVESGGGLVQAGGSHRLSCAASGIIFSGNAMGWYRQAPGKERELVAAITRGGRTYYADSVKGRFTISRDNAKNTVYLQMNSLKPEDTAVYYCNKRYRYKYDYWGQGTQVTVSS | high polyreactivity |
| QVQLVESGGGLVQAGGSHRLSCAASGITFYGNAMGWYRQAPGKERELVAGITSGGNTYYADSVKGRFTISRDNAKNTVYLQMNSLKPEDTAVYYCAAGYFSYRSYYYYRYDYWGQGTQVTVSS | high polyreactivity |
| QVQLVESGGGLVQAGGSHRLSCAASGQTVYYYPMGWYRQAPGKEREVVASISTGGNTYYADSVKGRFTISRDNAKNTVYLQMNSLKPEDTAVYYCAAGLYSWSGFASYNSAYGYWGQGTQVTVSS | low polyreactivity |
| QVQLVESGGGLVQAGGSHRLSCAASGRIFAYNAMGWYRQAPGKERELVAAISSGGNTYYADSVKGRFTISRDNAKNTVYLQMNSLTPEDTAVYYCNAGVGWHRYYSNYDYWGQGTQVTVSS | low polyreactivity |
| QVQLVESGGGLVQAGGSHRLSCAASGRIFGCYTMGWYRQAPAKERELVAGITRRGGRTYYADSVKGRFTISRDTAKYTVYLQMNSLKPEDTAVYYCAVRSGVNFYYWGHGTQVTVSS | high polyreactivity |
| QVQLVESGGGLVQAGGSHRLSCAASGRIFQRNTMGWYRQAPGKERELVARINYSGGSTYYADSVKGRFTISRDNAKNTVYLQMNSLKPEDTAVYYCAARVWTWSIYYRAGLSSYDYWGQGTQVTVSS | low polyreactivity |
| QVQLVESGGGLVQAGGSHRLSCAASGRILVRYAMGCYRHAPGKERELVAAISRGGSTTYADSVKGRFTISRDNAKNTVYLQMNSLKPEDTAFYYCAAGRYPYNRDYWGQGTQVTVSS | high polyreactivity |
| QVQLVESGGGLVQAGGSHRLSCAASGRTFLTNAMGWYRQAPGKERELVAAIRWSGTSTYYADSVKGRFTISRDNAKNTVYLQMNSLKPEDTAVYYCAARKVYGSKYGYWGQGTQVTVSS | high polyreactivity |
